Patent US20140343258A1 (Astellas, published 2014)

T1: human CTGF (human, UniProt P29279 27-349)
T1 construct: also called human CTGF protein; connective tissue growth factor
T1 sequence: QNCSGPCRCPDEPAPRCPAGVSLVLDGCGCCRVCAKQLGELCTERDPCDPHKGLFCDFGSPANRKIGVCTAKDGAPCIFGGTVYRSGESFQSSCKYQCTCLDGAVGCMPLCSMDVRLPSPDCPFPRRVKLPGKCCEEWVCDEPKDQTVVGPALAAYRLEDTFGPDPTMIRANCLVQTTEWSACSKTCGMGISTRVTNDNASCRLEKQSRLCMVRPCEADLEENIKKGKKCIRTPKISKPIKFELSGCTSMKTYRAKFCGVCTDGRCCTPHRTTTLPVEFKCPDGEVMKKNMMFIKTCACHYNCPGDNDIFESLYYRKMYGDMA

T2: mouse CTGF (mouse, UniProt P29268 26-348)
T2 construct: mature
T2 sequence (looked up): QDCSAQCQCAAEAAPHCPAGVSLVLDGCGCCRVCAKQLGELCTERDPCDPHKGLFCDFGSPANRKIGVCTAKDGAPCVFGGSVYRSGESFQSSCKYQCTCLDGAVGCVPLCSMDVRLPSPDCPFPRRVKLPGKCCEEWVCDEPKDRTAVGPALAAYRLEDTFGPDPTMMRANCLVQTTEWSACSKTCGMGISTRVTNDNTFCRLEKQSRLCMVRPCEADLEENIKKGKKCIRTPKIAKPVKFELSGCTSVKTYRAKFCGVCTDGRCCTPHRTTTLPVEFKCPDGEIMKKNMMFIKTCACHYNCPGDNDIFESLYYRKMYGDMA

T3: rat CTGF (rat, UniProt Q9R1E9 25-347)
T3 construct: mature
T3 sequence (looked up): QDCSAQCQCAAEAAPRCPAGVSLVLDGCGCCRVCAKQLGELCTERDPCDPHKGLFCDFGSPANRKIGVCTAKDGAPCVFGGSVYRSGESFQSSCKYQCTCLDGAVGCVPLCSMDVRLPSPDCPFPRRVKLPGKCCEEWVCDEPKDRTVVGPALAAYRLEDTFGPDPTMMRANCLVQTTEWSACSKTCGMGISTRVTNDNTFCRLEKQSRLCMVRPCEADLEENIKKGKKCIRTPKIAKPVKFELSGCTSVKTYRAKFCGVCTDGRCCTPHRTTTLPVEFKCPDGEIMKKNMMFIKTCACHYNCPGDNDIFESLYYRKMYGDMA

B1: 37-45 (antibody, V domains shown)
VH: QVQLVQSGAEVKKPGASVKVSCKASGYTFTGYYMYWVRQAPGQGLEWMGWINPNSGGTNYSQKFQGRVTMTRDTSISTAYMELSRLRSDDTALYYCARGSKWNYPFDYWGQGTLVTVSS
VL: EIVLTQSPGTLSLSPGERATLSCRASQSVSSSYLAWYQQKPGQAPRLLIYGASRRATGIPDRFSGSGSGTDFTLTISRLEPEDFVVYFCQQYVSTPWTFGQGTKVEIKR
notes: also called 37-45 antibody
B2: fully human 37-45 (antibody, human IgG1, kappa, V domains shown)
VH: QVQLVQSGAEVKKPGASVKVSCKASGYTFTGYYMYWVRQAPGQGLEWMGWINPNSGGTNYSQKFQGRVTMTRDTSISTAYMELSRLRSDDTALYYCARGSKWNYPFDYWGQGTLVTVSS
VL: EIVLTQSPGTLSLSPGERATLSCRASQSVSSSYLAWYQQKPGQAPRLLIYGASRRATGIPDRFSGSGSGTDFTLTISRLEPEDFVVYFCQQYVSTPWTFGQGTKVEIKR
notes: Human Ig gamma1 and human kappa constant regions, expressed in CHO-K1SV cells; The heavy-chain variable region has an N-glycosylation motif at Asn 58 (Kabat)
B3: fully human 37-45-MH1 (antibody, human IgG1, kappa, V domains shown)
VH: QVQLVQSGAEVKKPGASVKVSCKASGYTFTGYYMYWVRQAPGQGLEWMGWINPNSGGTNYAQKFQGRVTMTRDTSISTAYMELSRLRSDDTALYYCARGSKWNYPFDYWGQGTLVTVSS
VL: EIVLTQSPGTLSLSPGERATLSCRASQSVSSSYLAWYQQKPGQAPRLLIYGASRRATGIPDRFSGSGSGTDFTLTISRLEPEDFVVYFCQQYVSTPWTFGQGTKVEIKR
notes: It has the same light chain as fully human 37-45; Human IgG1/kappa

How the values were obtained:
human CTGF [1] = biological target: T1, human CTGF; experiment: ELISA, human CTGF immobilized on the plate, HRP anti-mouse IgG detection
Method: The present inventors evaluated the binding specificity of the antibody for CTGF using an ELISA method. 20 μL of PBS solution of human CTGF (1 μg/mL) was added to a Maxisorp 384 plate (Nunc, Inc.), and immobilized by being incubated overnight at 4° C. The next day, the plate was washed once with 100 μL of washing solution (TPBS: 0.05% Tween-20-containing PBS), and then 100 μL of blocking agent (1% BSA-containing PBS) was added thereto and allowed to stand at room temperature for 1 hour. After washing once with 100 μL of TBST washing solution, a series of appropriate dilutions of the purified antibody sample were prepared and added to the plate. After incubation at room temperature for 1 hour, the plate was washed three times with 100 μL of TBST washing solution, and a goat anti-mouse IgG antibody labeled with a horseradish peroxidase (HRP-goat anti-mouse IgG antibody; Zymed Laboratories, Inc.) which was diluted 5000-fold with a 0.1% BSA-containing TBST washing solution (20 μL) was added thereto. […] After adding 40 μL of TMB chromogenic reagent (Sumitomo Bakelite Co., Ltd.) thereto and allowing it to stand at room temperature for 10 minutes, 40 μL of stopping solution (2 mol/L sulfuric acid) was added thereto to stop the reaction, and the absorbance at 450 nm was measured. Each of the antibodies was tested in duplicate, and the EC50 was analyzed by curve fitting.

human CTGF [2] = biological target: T1, human CTGF; experiment: ELISA, CTGF immobilized on the plate, HRP anti-human IgG detection
Method: (§1) The present inventors evaluated the binding specificity of the antibody for CTGF using an ELISA method. 20 μL of PBS solution of human CTGF (1 μg/mL) was added to a Maxisorp 384 plate (Nunc, Inc.), and immobilized by being incubated overnight at 4° C. The next day, the plate was washed once with 100 μL of washing solution (TPBS: 0.05% Tween-20-containing PBS), and then 100 μL of blocking agent (1% BSA-containing PBS) was added thereto and allowed to stand at room temperature for 1 hour. After washing once with 100 μL of TBST washing solution, a series of appropriate dilutions of the purified antibody sample were prepared and added to the plate. After incubation at room temperature for 1 hour, the plate was washed three times with 100 μL of TBST washing solution, and a goat anti-mouse IgG antibody labeled with a horseradish peroxidase (HRP-goat anti-mouse IgG antibody; Zymed Laboratories, Inc.) which was diluted 5000-fold with a 0.1% BSA-containing TBST washing solution (20 μL) was added thereto. After incubation at room temperature for 1 hour, the plate was washed three times with 100 μL of TBST washing solution. After adding 40 μL of TMB chromogenic reagent (Sumitomo Bakelite Co., Ltd.) thereto and allowing it to stand at room temperature for 10 minutes, 40 μL of stopping solution (2 mol/L sulfuric acid) was added thereto to stop the reaction, and the absorbance at 450 nm was measured. Each of the antibodies was tested in duplicate, and the EC50 was analyzed by curve fitting.
(§2) The present inventors evaluated the binding specificity of fully human 37-45 and fully human 37-45-MH1 prepared in the above Examples to human, mouse, rat and monkey CTGF using an ELISA method. Here, the same method as described in Example 4 was used, but a rabbit anti-human IgG antibody labeled with horseradish peroxidase (HRP-rabbit anti-human IgG antibody; DAKO) which was 5000-fold diluted with a 0.1% BSA-containing TBST washing solution as a secondary antibody. The test on each antibody was carried out in duplicate and EC50 was analyzed by curve fitting.

mouse CTGF = biological target: T2, mouse CTGF; experiment: as above
Method: as §1, §2

rat CTGF = biological target: T3, rat CTGF; experiment: as above
Method: as §1, §2

monkey CTGF = biological target: T4, monkey CTGF (monkey); experiment: as above
T4 construct: mature
Method: as §1, §2

human CTGF [3] = biological target: T1, human CTGF; experiment: SPR, Biacore 2000, comparison of KD with the reference antibody CLN1
From the text: (§3) In order to measure the antigen-specific binding activity of fully human 37-45-MH1 in more detail, the present inventors carried out surface plasmon resonance (SPR) analysis. In the present Example, an anti-human CTGF antibody CLN1 (Patent Document 2) was used as a comparative antibody.
(§4) In the SPR analysis, Biacore 2000 (GE Healthcare Japan) was used to carry out analysis. An anti-CTGF antibody was immobilized on the surface of a Sensor Chip CM5 using a Human Antibody Capture Kit and an Amine Coupling Kit (GE Healthcare Japan). Serial dilution of the human CTGF acquired in Example 1 was made by HBS-EP solution (GE Healthcare Japan). 100 μL of the dilution was added to flow path at flow rate 50 μl/min. By this measurement system, the association rate constant (ka), the dissociation rate constant (kd), and the dissociation constant (KD) between the human CTGF protein and the anti-CTGF antibody were calculated using a data analysis software (BIA Evaluation).

human CTGF [4] = biological target: T1, human CTGF; experiment: SPR, Biacore 2000, antibody captured on CM5 chip (Human Antibody Capture Kit), human CTGF as analyte
From the text: as §3, §4

| Binder | EC50 (human CTGF [1]) [µg/mL] | EC50 (human CTGF [2]) [µg/mL] | EC50 (mouse CTGF) [µg/mL] | EC50 (rat CTGF) [µg/mL] | EC50 (monkey CTGF) [µg/mL] | fold binding activity against CLN1 (human CTGF [3]) [times] | Kd (human CTGF [4]) [nM] | koff (human CTGF [4]) [s⁻¹] |
| --- | --- | --- | --- | --- | --- | --- | --- | --- |
| B1 | 0.0016 | – | – | – | – | – | – | – |
| B2 | – | 0.0132 | 0.0124 | 0.0131 | 0.0125 | – | – | – |
| B3 | – | 0.0104 | 0.0092 | 0.0092 | 0.0086 | ≥ 12 | 0.037 | 0.00016 |
